Earlier results on one substance are cited in paper PMC3094721.

This series addresses ChemR23 (Homo sapiens) (UniProt Q99788). Kind of series: radioligand.

Chain of ChemR23 (Homo sapiens) (Q99788 whole entry): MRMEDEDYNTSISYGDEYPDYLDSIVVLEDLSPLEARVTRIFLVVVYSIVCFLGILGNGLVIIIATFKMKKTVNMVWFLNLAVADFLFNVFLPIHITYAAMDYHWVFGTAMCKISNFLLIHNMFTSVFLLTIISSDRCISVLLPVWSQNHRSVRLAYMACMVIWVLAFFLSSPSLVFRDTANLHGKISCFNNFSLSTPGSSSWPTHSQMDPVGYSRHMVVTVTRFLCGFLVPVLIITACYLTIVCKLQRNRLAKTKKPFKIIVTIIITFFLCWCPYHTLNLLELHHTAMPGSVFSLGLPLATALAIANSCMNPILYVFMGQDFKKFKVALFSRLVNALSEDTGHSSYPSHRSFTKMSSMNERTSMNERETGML
Chain of chemerin peptide (Q99969 21-157): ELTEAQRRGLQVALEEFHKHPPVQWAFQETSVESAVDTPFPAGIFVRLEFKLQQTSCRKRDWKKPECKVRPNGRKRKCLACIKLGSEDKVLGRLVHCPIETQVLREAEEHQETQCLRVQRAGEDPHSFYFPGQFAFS

One may read the Ki as a dissociation constant, usually derived from enzyme kinetics or from competition with a known ligand. Take chemerin peptide (from UniProt Q99969): the Ki is 429 nM.
